The data set concerns person suffering from chronic lymphatic leukemia (cancerous anemia).

Source text: The white blood cell count, the red blood cell count, the hemoglobin, and the blood platelet count before and after treatment are shown in Table 3 below.

Regarding “Rituxan: anticancer drug used to treat chronic lymphatic leukemia”, the “White blood cell count” value (2010 Nov. 22, after one cycle of Rituxan begun Nov. 15, 2010, before ALA, 2010 Jan. 13 value 16.48) stood at 1560 µL⁻¹. Further, under “human, in vivo”, the “Anemia as side effect, result in words” value was “anemia progressed as a side effect”; the Blood platelet count was determined as 101000 µL⁻¹; the Hemoglobin was 9.20 g/dL; the “Red blood cell count” value worked out at 2.8e+06 µL⁻¹.

Values taken from patent publication US9539225B2, “Anemia of cancer improving/prophylactic agent” (SBI Pharmaceuticals Co., Ltd., priority 2011, dated 2017).
